Legend:
MBP-tagged UBR7 [1] = assay: MBP pull-down, quantified band intensity, bar chart of three replicates; settings: parent: est. 1.0; read off a plot
MBP-tagged UBR7 [2] = assay: MBP pull-down (blot Anti-His), band intensity; settings: parent: 1.00
UBR7-nLuc = assay: LCI assay (luciferase complementation imaging) in N. benthamiana leaves; settings: Luminescence signals were recorded at 48 hpi; parent: est. 1.0; read off a plot
[3] = target: UBR7 (construct of the Co-IP assays); assay: Co-IP (IP: Anti-Flag, blot Anti-HA), band intensity; settings: parent: 1.00
[4] = target: UBR7 (construct of the Co-IP assays); assay: Co-IP (IP: Anti-Flag), quantified band intensity, bar chart of three replicates; settings: parent: est. 1.0; read off a plot

| Substance | ratio to parent (MBP-tagged UBR7 [1]) | ratio to parent (MBP-tagged UBR7 [2]) | ratio to parent (UBR7-nLuc) | ratio to parent [3] | ratio to parent [4] |
| --- | --- | --- | --- | --- | --- |
| His-tagged AL7 S174D | 3.1 | 3.18 |  |  |  |
| cLuc-AL7 S174A |  |  | 0.98 |  |  |
| AL7-3×Flag S174D |  |  |  | 1.63 | 1.9 |
| AL7-3×Flag S174A |  |  |  | 0.55 | 0.6 |
| His-tagged AL7 S174A | 0.72 | 0.95 |  |  |  |
| cLuc-AL7 S174D |  |  | 1.6 |  |  |

Reference: PMC12164958
